From patent US20160083465A1 (AVEO PHARMACEUTICALS, published 2016) come the findings set out here.

What is called Kd is the equilibrium constant for the complex coming apart. Usually koff stands for a measure of how fast the partners let go of each other. The kon is the rate constant with which the complex forms.

Positions count from the first letter of the chain named.

B1: 01G06 (antibody, mouse IgG1, kappa)
heavy: EVLLQQSGPELVKPGASVKIPCKASGYTFTDYNMDWVKQSHGKSLEWIGQINPNNGGIFFNQKFKGKATLTVDKSSNTAFMEVRSLTSEDTAVYYCAREAITTVGAMDYWGQGTSVTVSSAKTTPPSVYPLAPGSAAQTNSMVTLGCLVKGYFPEPVTVTWNSGSLSSGVHTFPAVLQSDLYTLSSSVTVPSSTWPSETVTCNVAHPASSTKVDKKIVPRDCGCKPCICTVPEVSSVFIFPPKPKDVLTITLTPKVTCVVVDISKDDPEVQFSWFVDDVEVHTAQTQPREEQFNSTFRSVSELPIMHQDWLNGKEFKCRVNSAAFPAPIEKTISKTKGRPKAPQVYTIPPPKEQMAKDKVSLTCMITDFFPEDITVEWQWNGQPAENYKNTQPIMDTDGSYFVYSKLNVQKSNWEAGNTFTCSVLHEGLHNHHTEKSLSHSPGK
light: DIQMTQSPASLSASVGETVTITCRTSENLHNYLAWYQQKQGKSPQLLVYDAKTLADGVPSRFSGSGSGTQYSLKINSLQPEDFGSYYCQHFWSSPYTFGGGTKLEIKRADAAPTVSIFPPSSEQLTSGGASVVCFLNNFYPKDINVKWKIDGSERQNGVLNSWTDQDSKDSTYSMSSTLTLTKDEYERHNSYTCEATHKTSTSPIVKSFNRNEC
notes: Murine monoclonal from hybridoma, IgG1 kappa; also called antibody 01G06
B2: 06C11 (antibody, mouse IgG1, kappa)
heavy: QVTLKESGPGILQPSQTLSLTCSFSGFSLNTYGMGVSWIRQPSGKGLEWLAHIYWDDDKRYNPSLKSRLTISKDASNNRVFLKITSVDTADTATYYCAQRGYDDYWGYWGQGTLVTISAAKTTPPSVYPLAPGSAAQTNSMVTLGCLVKGYFPEPVTVTWNSGSLSSGVHTFPAVLQSDLYTLSSSVTVPSSTWPSETVTCNVAHPASSTKVDKKIVPRDCGCKPCICTVPEVSSVFIFPPKPKDVLTITLTPKVTCVVVDISKDDPEVQFSWFVDDVEVHTAQTQPREEQFNSTFRSVSELPIMHQDWLNGKEFKCRVNSAAFPAPIEKTISKTKGRPKAPQVYTIPPPKEQMAKDKVSLTCMITDFFPEDITVEWQWNGQPAENYKNTQPIMDTDGSYFVYSKLNVQKSNWEAGNTFTCSVLHEGLHNHHTEKSLSHSPGK
light: DIVMTQSQKFMSTSVGDRVSVTCKASQNVGTNVAWFQQKPGQSPKALIYSASYRYSGVPDRFTGSGSGTDFILTISNVQSEDLAEYFCQQYNNYPLTFGAGTKLELKRADAAPTVSIFPPSSEQLTSGGASVVCFLNNFYPKDINVKWKIDGSERQNGVLNSWTDQDSKDSTYSMSSTLTLTKDEYERHNSYTCEATHKTSTSPIVKSFNRNEC
notes: Murine monoclonal from hybridoma, IgG1 kappa; also called antibody 06C11
B3: 14F11 (antibody, mouse IgG1, kappa)
heavy: QVTLKESGPGILQPSQTLSLTCSFSGFSLSTYGMGVGWIRQPSGKGLEWLADIWWDDDKYYNPSLKSRLTISKDTSSNEVFLKIAIVDTADTATYYCARRGHYSAMDYWGQGTSVTVSSAKTTPPSVYPLAPGSAAQTNSMVTLGCLVKGYFPEPVTVTWNSGSLSSGVHTFPAVLQSDLYTLSSSVTVPSSTWPSETVTCNVAHPASSTKVDKKIVPRDCGCKPCICTVPEVSSVFIFPPKPKDVLTITLTPKVTCVVVDISKDDPEVQFSWFVDDVEVHTAQTQPREEQFNSTFRSVSELPIMHQDWLNGKEFKCRVNSAAFPAPIEKTISKTKGRPKAPQVYTIPPPKEQMAKDKVSLTCMITDFFPEDITVEWQWNGQPAENYKNTQPIMDTDGSYFVYSKLNVQKSNWEAGNTFTCSVLHEGLHNHHTEKSLSHSPGK
light: B2 light with F36Y, A51P, I72T, N93S, L96H, A100G, L106M
notes: Murine monoclonal from hybridoma, IgG1 kappa; also called antibody 14F11

In one assay the target is T1, 6xHis tagged recombinant human GDF15 (His-rhGDF15) (human, UniProt Q99988 197-308).
T1 construct: Bought from R&D Systems
T1 sequence: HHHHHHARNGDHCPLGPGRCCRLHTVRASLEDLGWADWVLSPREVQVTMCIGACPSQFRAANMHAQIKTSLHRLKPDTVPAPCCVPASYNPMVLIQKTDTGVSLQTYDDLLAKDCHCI
The assay can be described thus: SPR Biacore T100, 37 C, antibody captured by anti-mouse IgG, antigen in solution. Here is the method:
(§1) Rabbit anti-mouse IgGs (GE Healthcare) were immobilized on carboxymethylated dextran CM4 sensor chips (GE Healthcare) by amine coupling, according to a standard protocol. Analyses were performed at 37° C. using PBS containing 0.05% surfactant P20 as running buffer. The antibodies were captured in individual flow cells at a flow rate of 10 μL/minute. Injection time was varied for each antibody to yield an Rmax between 30 and 60 RU. 250 μg/mL mouse Fc (Jackson ImmunoResearch, West Grove, Pa.) was injected at 30 μL/minute for 120 seconds to block non-specific binding of capture antibodies to mouse Fc portion of the recombinant GDF15 protein when needed. […] The dissociation phase was monitored for up to 1500 seconds. The surface was then regenerated with two 60-second injections of 10 mM Glycine-HCl, pH 1.7, at a flow rate of 30 μL/minute.
(§2) Kinetic parameters were determined using the kinetic function of the BIAevaluation software (GE Healthcare) with double reference subtraction.
Take B1: the dissociation constant Kd came out at 0.081 nM, the off-rate (koff) was 0.0011 s⁻¹ and the kon is 1.4e+07 M⁻¹ s⁻¹.
Turning to B2, the Kd came to 0.051 nM, the koff was found to be 0.0015 s⁻¹ and the on-rate constant (kon) was determined as 2.9e+07 M⁻¹ s⁻¹.
The corresponding values for B3 are 0.096 nM, 0.00042 s⁻¹ and 4.4e+06 M⁻¹ s⁻¹.

For another assay, the target named is T2, cleaved-rhGDF15 (human, UniProt Q99988 197-308).
T2 sequence: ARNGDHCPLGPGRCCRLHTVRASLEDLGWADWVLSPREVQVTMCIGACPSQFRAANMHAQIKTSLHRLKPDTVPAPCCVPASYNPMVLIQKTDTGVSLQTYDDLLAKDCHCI
Described as above. Here is the method: as §1, §2
Turning to B1, the Kd is 0.11 nM, the koff was 0.00086 s⁻¹ and the kon is 7.5e+06 M⁻¹ s⁻¹.
B2 showed a Kd of 0.17 nM, a koff of 0.002 s⁻¹ and a kon of 1.2e+07 M⁻¹ s⁻¹.
In turn, B3 had a Kd of 0.11 nM, a koff of 0.0006 s⁻¹ and a kon of 5.7e+06 M⁻¹ s⁻¹.

A further assay has as its target T3, untagged recombinant human GDF15 (rhGDF15 (Peprotech)) (human, UniProt Q99988 197-308, limits assumed).
T3 construct: Bought from Peprotech
T3 sequence (looked up): T2 sequence
Described as above. Here is the method:
as §1, §2
B1: the Kd turned out to be 0.093 nM, the koff turned out to be 0.0019 s⁻¹ and the kon came out at 2.1e+07 M⁻¹ s⁻¹.
For B2, the dissociation constant Kd came to 0.21 nM, the koff was 0.0046 s⁻¹ and the on-rate constant (kon) came to 2.2e+07 M⁻¹ s⁻¹.
For B3, the Kd was 0.071 nM, the koff was determined as 0.0022 s⁻¹ and the on-rate (kon) was found to be 3.1e+07 M⁻¹ s⁻¹.

For another assay, the target named is T4, mouse IgG1 Fc-mature human GDF15 fusion protein (mFc-rhGDF15) (mouse; human).
T4 construct: Made in CHOK1SV cells, purified by Protein A and size exclusion; also called mouse Fc fused to human GDF15
T4 chain: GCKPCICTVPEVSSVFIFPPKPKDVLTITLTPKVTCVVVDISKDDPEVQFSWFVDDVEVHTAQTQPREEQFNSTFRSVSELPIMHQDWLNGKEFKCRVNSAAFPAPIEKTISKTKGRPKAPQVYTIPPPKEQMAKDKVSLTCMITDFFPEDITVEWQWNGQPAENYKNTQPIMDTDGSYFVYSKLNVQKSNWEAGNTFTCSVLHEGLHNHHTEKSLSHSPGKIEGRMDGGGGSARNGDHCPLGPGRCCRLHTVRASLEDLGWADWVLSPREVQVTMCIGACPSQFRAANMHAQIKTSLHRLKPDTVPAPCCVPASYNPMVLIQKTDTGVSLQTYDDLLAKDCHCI
The assay is described as above. On the procedure:
as §1, §2
Consider B1, for which the dissociation constant (Kd) worked out at 0.21 nM, the koff is 0.0007 s⁻¹ and the kon came out at 5.6e+06 M⁻¹ s⁻¹.
The corresponding values for B2 are 0.17 nM, 0.00068 s⁻¹ and 4.5e+06 M⁻¹ s⁻¹.
B3 showed a Kd of 0.22 nM, a koff of 0.00033 s⁻¹ and a kon of 1.7e+06 M⁻¹ s⁻¹.
